Data on 4 molecules can be found in article PMC8445998 (Nature Communications, 2021).

Where a chain is given by its changes, count along the chain named. Names and notes keep the numbering of the source.

What all share (settings): both partners purified
The target in one experiment is T1, His6-TF-SUMO-OsCOI1b (rice, UniProt Q60EH4 1-597).
T1 construct: also called His6-OsCOI1b
T1 sequence (looked up): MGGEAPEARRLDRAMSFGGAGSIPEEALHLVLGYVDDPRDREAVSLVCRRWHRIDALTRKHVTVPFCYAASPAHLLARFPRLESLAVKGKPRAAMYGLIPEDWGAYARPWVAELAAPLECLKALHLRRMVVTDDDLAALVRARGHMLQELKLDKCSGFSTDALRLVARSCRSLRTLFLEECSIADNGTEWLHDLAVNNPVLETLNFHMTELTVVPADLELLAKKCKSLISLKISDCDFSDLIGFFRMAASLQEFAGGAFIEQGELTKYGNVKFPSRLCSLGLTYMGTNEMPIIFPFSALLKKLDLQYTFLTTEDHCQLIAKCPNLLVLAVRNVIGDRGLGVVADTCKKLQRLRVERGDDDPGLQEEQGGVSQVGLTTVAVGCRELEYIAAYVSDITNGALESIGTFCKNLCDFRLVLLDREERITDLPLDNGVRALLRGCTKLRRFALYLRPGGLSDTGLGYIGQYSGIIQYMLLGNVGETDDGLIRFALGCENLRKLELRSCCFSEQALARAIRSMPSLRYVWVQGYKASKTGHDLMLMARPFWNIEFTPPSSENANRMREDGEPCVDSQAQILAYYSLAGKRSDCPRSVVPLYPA
Description: MST.

Experiment [1] concerns the target T2, His6-TF-SUMO-tagged OsCOI1b^R13A (rice, UniProt Q60EH4 1-597, R13A).
T2 sequence (looked up): T1 sequence (looked up) with R13A
Description: pull-down.

Experiment [2] has as its target T3, His6-TF-SUMO-tagged OsCOI1b^R9A (rice, UniProt Q60EH4 1-597, R9A).
T3 sequence (looked up): T1 sequence (looked up) with R9A
Description: pull-down.

In experiment [3] the target is T4, His6-TF-SUMO-tagged OsCOI1b^R10A (rice, UniProt Q60EH4 1-597, R10A).
T4 sequence (looked up): T1 sequence (looked up) with R10A
Description: pull-down.

B1: His6-OSK1^S53D (natural protein, rice, UniProt Q6PL11 1-173, looked up)
chain: MAAEGEKKMITLKSSDGEEFEVEEAVAMESQTIRHMIEDDCADNGIPLPNVNDKILSKVIEYCNKHVHAAAAAASKAADDAASAAAAVPPPSGEDLKNWDADFVKVDQATLFDLILAANYLNIKGLLDLTCQTVADMIKGKTPEEIRKTFNIKNDFTPEEEEEIRRENQWAFE
On to B1, for which the Kd with His6-TF-SUMO-OsCOI1b was found to be 12.7 nM.

B2: GST-OSK1^S53D (natural protein, rice, UniProt Q6PL11 1-173, looked up)
chain: B1 chain
notes: not shown: GST, N-terminal, kept
Regarding B2, the binding result in experiment [1], in experiment [2] and in experiment [3] was “binds” in each case.

B3: GST-OSK1 (natural protein, rice, UniProt Q6PL11 1-173, looked up)
chain: B1 chain with D53S
notes: as for B2
As for B3, the binding result in experiment [1], in experiment [2] and in experiment [3] was “binds” in each case.

B4: His6-OSK1 (natural protein, rice, UniProt Q6PL11 1-173, looked up)
chain: B1 chain with D53S
B4: in the experiment with His6-TF-SUMO-OsCOI1b, the Kd stood at 53.8 nM.
